From CN109081868A (INST PASTEUR SHANGHAI CAS, dated 2018)

Target: T1, ZIKV E80 (寨卡病毒包膜蛋白N端80%区域, 氨基酸1-409) (Zika virus (2015 South American …, UniProt A0A024B7W1 291-699))
T1 construct: also called ZKE80
Experiment: BLI (Octet-Red), biotinylated ZIKV E80 on streptavidin sensor, antibody at 40-0.064 ug/ml in solution

T1 sequence (A0A024B7W1 291-699): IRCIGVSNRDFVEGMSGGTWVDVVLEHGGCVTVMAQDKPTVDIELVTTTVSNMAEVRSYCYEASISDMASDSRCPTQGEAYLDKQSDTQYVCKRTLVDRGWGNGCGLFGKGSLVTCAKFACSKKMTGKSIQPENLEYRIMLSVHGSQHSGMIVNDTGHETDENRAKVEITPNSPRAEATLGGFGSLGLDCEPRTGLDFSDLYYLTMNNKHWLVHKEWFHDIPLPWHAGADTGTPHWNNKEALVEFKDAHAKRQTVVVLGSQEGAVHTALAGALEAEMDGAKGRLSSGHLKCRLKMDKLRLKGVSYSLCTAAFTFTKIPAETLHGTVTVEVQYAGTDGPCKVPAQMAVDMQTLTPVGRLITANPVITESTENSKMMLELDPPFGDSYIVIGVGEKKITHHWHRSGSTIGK

B1: 单克隆抗体5F8 (antibody, V domains shown)
VH: QVQLQQSGAELVRPGVSAKISCKASGYIFTDYAMHWVKQSHAKSLEWIGLISTKSGAANYNQKFTDKATLTVDKSSSTAYLELARLTSEDSAIYYCARNDYLAWLPYWGQGTLVTVSA
VL: DVLMTQTPLSLPVSLGDHASISCRSSQSIVHSNGNTYLEWYLQKPGQSPKLLIYKVSYRFSGVPDRFSGSGSGTDFTLKISRVEAEDLGVYYCFQGSHVPWTFGGGTKLEIK
notes: also called 单抗5F8; 重组5F8
- Kd: 15 nM
